Data: patent publication US20070231812A1, “Method of Screening Antidiabetic Agents” (priority 2004, published 2007)

Columns and labels:
endogenous SOCS-2 gene = experiment: Endogenous SOCS-2 mRNA in HepG2 cells by quantitative PCR with or without IL-6; assay type: cell-based, human; details: IL-6 10 ng/mL, 3 hours, compensated with G3PDH, relative to absence of IL-6
Method: First, an endogenous SOCS-2 promoter activity was measured. Since a stimulation capable of promoting the SOCS-2 promoter activity in pancreatic β cells was unknown, an amount of SOCS-2 mRNA was measured when stimulated by IL-6, which was a typical stimulation capable of increasing a transcriptional activity of STAT1, STAT3, or STAT5. It is considered that STAT1, STAT3, and STAT5 transduce an external signal, and finally promote a SOCS-2 transcriptional activity. More particularly, human HepG2 cells in which the IL-6 reactivity was confirmed were used to measure and compare amounts of endogenous SOCS-2 mRNA expressed when stimulated with or without IL-6 stimulation. The amount of gene expressed was compensated by measuring an amount of a G3PDH (Glyceraldehyde 3-phosphate dehydrogenase) gene expressed, at the same time. […] In this measuring system, an amount of fluorescence from a SYBR Green I dye incorporated into double-stranded DNAs amplified by PCR was detected and quantified in real time, to determine the amount of gene expressed. […]
The amount of […] SOCS-2 gene expressed was compensated with that of the G3PDH gene expressed in accordance with the following equation: C=A/B [C: Compensated amount of SOCS-2 expressed, A: Measured value of the SOCS-2 gene expressed, and B: Measured value of the G3PDH gene expressed]

SOCS-2 promoter = SOCS-2 promoter reporter (luciferase) activity in HepG2 cells with or without IL-6; assay type: cell-based, human; details: IL-6 stimulation 3 hours, standardized by β-galactosidase activity, relative to absence of IL-6
Method: On the basis of the registered sequence (NCBI Reference Sequences No. NM_003877) of human SOCS-2, a genomic sequence which accords with the sequence was specified as the sequence of NCBI GenBank accession No. NC—000012.5—93000001—94000000. To obtain a DNA consisting of nucleotides 893,596-898,678 of NC—000012.5—93000001—94000000, which was considered the promoter region of human SOCS-2, i.e., a DNA consisting of the nucleotide sequence of SEQ ID NO: 3, the first PCR was carried out using synthetic oligo DNAs [5′-gtg[…]-3′ (SEQ ID NO: 8) and 5′-gtg[…]-3′ (SEQ ID NO: 9)] having restriction enzyme sites […] and NheI, respectively, and an LA Taq (TAKARA; catalogue code RR002A). The resulting PCR product was diluted to 1/50 with sterile water, and the second PCR was carried out using the diluted solution as a template, synthetic oligo DNAs [5′-gtg[…]-3′ (SEQ ID NO: 10) and 5′-gtg[…]-3′ (SEQ ID NO: 11)], and an LA Taq (TAKARA; catalogue code RR002A). […]
HepG2 cells (ATCC accession No. HB-8065) was transformed with the SOCS-2 reporter vector or the control vector prepared in Example 3(1) to measure the activity when stimulated with or without IL-6. […] The cells were lysed with a cell lysis solution LCβ (Toyo Ink MFG), and a luciferase activity was measured using a PicaGene coloring kit (Toyo Ink MFG; 309-04321). […]

MIN6B1 cells = experiment: Insulin secreted from MIN6B1 cells overexpressing SOCS-2; assay type: cell-based, mouse; details: 20 minutes, adenovirus infected MIN6B1 cells
Method: Mouse pancreatic β cell line MIN6B1 cells [Endocrinol. (2003) 144,. 1368-1379] were infected with SOCS-2/pAdTrack-CMV or pAdTrack-CMV (control) to prepare pancreatic β cells overexpressing SOCS-2, as described below.
MIN6B1 cells (2×10^5 cells) were seeded on a 24-well plate, and cultured for 24 hours in 0.5 mL of a minimum essential medium DMEM (GIBCO) containing 10% fetal bovine serum (SIGMA). SOCS-2/pAdTrack-CMV or pAdTrack-CMV (control) was added to each medium at a concentration of 4×10^8 pfu/well.
After 14 hours from the adenovirus infection of pancreatic β cells, each medium was aspirated, and cells were washed three times with KRB-HEPES (140 mmol/L NaCl, 3.6 mmol/L KCl, 0.5 mmol/L NaH2PO4, 0.5 mmol/L MgSO4, 1.5 mmol/L-CaCl2, 10 mmol/L Hepes, 2 mmol/L NaHCO3, and 0.1% BSA, pH 7.4), and incubated in 2.8 mmol/L glucose-containing KRB-HEPES (1 mL) at 37° C. for 1 hour in the presence of 5% CO2.
After the buffer was aspirated, 2.8 mmol/L or 16.8 mmol/L glucose-containing KRB-HEPES was added. The cells were further incubated at 37° C. for 20 minutes in the presence of 5% CO2, and an amount of insulin secreted into the supernatant was measured.
A commercially available insulin radioimmunoassay kit (Rat insulin [125I] RIA system; Amersham Bioscience) was used for the measurement of the amount of insulin secreted.

[1] = tested on: rat pancreatic Langerhans islets; experiment: Insulin secreted from rat pancreatic Langerhans islets overexpressing SOCS-2; assay type: cell-based; details: 90 minutes, adenovirus infected rat islets
Method: After 4 male rats (6-8 weeks old, 350 to 450 g in weight) were anesthetized, the abdomen was incised and exposed. A bile duct of the liver was ligated, and blood was drawn from the heart. From the bile duct, 5 mL of HBSS-HEPES (136.8 mmol/L NaCl, 5.3 mmol/L KCl, 0.8 mmol/L MgSO4, 1 mmol/L Na2HPO4, 0.44 mmol/L KH2PO4, 4.1 mmol/L NaHCO3, 10 mmol/L Hepes, 1 mmol/L CaCl2, and 2 mmol/L glucose, pH 7.2) supplemented with 0.02% Liberase (Roche Diagnostic) was injected using a winged needle. The pancreas was removed and transferred to a tube containing 5 mL of HBSS-HEPE, and incubated at 37° C. for 20 minutes. After the incubation, the whole was stirred, and ice-cold HBSS-HEPES-0.35% BSA was added. The mixture was centrifuged at 1500 rpm for 1 minute to remove the supernatant. To the precipitated tissues, 10 mL of HBSS-HEPES-0.35% BSA was added, and the tissues were suspended using a needle. This washing step was repeated twice. After the centrifugation, the supernatant was removed, and 10 mL of a 8.3% Ficoll-Conray solution was added and suspended. Further, 10 mL of HBSS-HEPES-0.35% BSA was added, and the whole was centrifuged for 20 minutes. After the centrifugation, pancreatic Langerhans islets between two liquid layers were collected. To the collected pancreatic Langerhans islets, 10 mL of HBSS-HEPES-0.35% BSA was added, and the whole was centrifuged. […]

[2] = 16.8 mmol/L glucose, p<0.01 vs control

Row | Molecule | expression of the endogenous SOCS-2 gene, factor of increase (endogenous SOCS-2 gene) | SOCS-2 reporter activity, factor of increase (SOCS-2 promoter) | insulin secretion versus control (MIN6B1 cells; 2.8 mmol/L glucose) | insulin secretion versus control (MIN6B1 cells; [2]) | insulin secretion versus control ([1]; 2.8 mmol/L glucose) | insulin secretion versus control [1, 2]
1 | IL-6: typical stimulation capable of increasing a transcriptional activity of STAT1, STAT3, or STAT5 (R&D Systems) | approximately 2 | approximately 2 | – | – | – | –
2 | SOCS-2: mouse SOCS-2 (amino acid sequence of SEQ ID NO: 2) overexpressed in pancreatic β cells via adenovirus vector pAdTrack-CMV (protein, listed as Mus sp.) MTLRCLEPSGNGADRTRSQWGTAGLPEEQSPEAARLAKALRELSQTGWYWGSMTVNEAKEKLKEAPEGTFLIRDSSHSDYLLTISVKTSAGPTNLRIEYQDGKFRLDSIICVKSKLKQFDSVVHLIDYYVQMCKDKRTGPEAPRNGTVHLYLTKPLYTSAPTLQHFCRLAINKCTGTIWGLPLPTRLKDYLEEYKFQV | – | – | no difference was observed | inhibited the activity of promoting insulin secretion | no difference was observed | inhibited the activity of promoting insulin secretion
